Test results from US20140087995A1 (published 2014).
Numbered stars: 1 amine (or outer) side, 2 acyl side, 3 side chain; on linkers, the order of the positions; unused ones are H or OH. Bridge positions count the residues as written; N and C are the ends. Side chains are listed from the residue outwards. Ends that are not written are not given here. * marks the point of attachment. C20 diacid = O=C(O)CCCCCCCCCCCCCCCCCCC(=O)*; γGlu = O=C(O)[C@H](CCC(=O)[*:2])N[*:1]; AEEA = NCCOCCOCC(=O)O

T1: human calcitonin receptor (human, UniProt P30988 25-474)
T1 construct: whole, on cells; Used as cell membranes; also called hCTR; hCT
T1 sequence (looked up): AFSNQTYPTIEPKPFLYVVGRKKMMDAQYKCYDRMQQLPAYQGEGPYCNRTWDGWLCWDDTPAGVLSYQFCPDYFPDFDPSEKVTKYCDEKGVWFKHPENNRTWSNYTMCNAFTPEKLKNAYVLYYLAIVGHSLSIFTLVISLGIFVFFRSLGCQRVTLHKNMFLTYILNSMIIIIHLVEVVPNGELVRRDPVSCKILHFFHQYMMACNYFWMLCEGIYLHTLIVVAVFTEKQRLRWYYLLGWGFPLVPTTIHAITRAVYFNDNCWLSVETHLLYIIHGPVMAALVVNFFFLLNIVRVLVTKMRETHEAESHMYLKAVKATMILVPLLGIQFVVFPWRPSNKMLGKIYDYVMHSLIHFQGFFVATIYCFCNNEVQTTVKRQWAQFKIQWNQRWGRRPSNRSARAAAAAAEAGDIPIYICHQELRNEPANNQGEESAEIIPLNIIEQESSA


Tests used:
[1] = molecular target: T1, human calcitonin receptor; assay: ratio of hCTR IC50 to hAmylin-R IC50 (reference: human amylin receptor)
Description: The resulting pellet was resuspended, homogenized and centrifuged (20.000 rpm, 15 min) in a buffer containing 20 mM Na-HEPES and 0.1 mM EDTA (pH 7.4, buffer 2). The resulting pellet was resuspended in buffer 2 and protein concentration was measured (BCA protein Assay, Pierce). The homogenate was kept cold during the whole procedure. The membranes were kept at −80° C. until use. The assay was performed in a 384 well Optiplate (PerkinElmer) in a total volume of 40 ul. Membranes were mixed with SPA beads. Final concentration of membranes 35 ng/μL final and SPA beads was 0.05 mg/well. Test-compounds were dissolved in DMSO and further diluted in assay buffer (50 mM Hepes, pH 7.4, 1 mM CaCl2, 5 mM MgCl₂, 0.1% OA and 0.02% Tween20). […] The final mixture was incubated with shaking at 400 rpm for 120 min at 25° C. prior to centrifugation (1500 rpm, 10 min). Samples were analyzed on TopCounter™ (Packard). The IC₅₀ was calculated using (one site binding competition analysis) GraphPad Prism5 as a measure of receptor affinity.
Membranes were prepared in the following way; the cells were rinsed with PBS and incubated with Versene for approximately 5 min before harvesting. The cells were flushed with PBS and the cell-suspension was centrifuged for 5 min at 1000 rpm. Cells were homogenized (Ultrathurrax) in a buffer containing 20 mM Na-HEPES and 10 mM EDTA (pH 7.4) and centrifuged at 20.000 rpm for 15 min. The resulting pellet was resuspended, homogenized and centrifuged (20.000 rpm, 15 min) in a buffer containing 20 mM Na-HEPES and 0.1 mM EDTA (pH 7.4, buffer 2). The resulting pellet was resuspended in buffer 2 and protein concentration was measured (BCA protein Assay, Pierce). The homogenate was kept cold during the whole procedure. The membranes were kept at −80° C. until use. Assay was performed in a 384 well Optiplate (PerkinElmer) in a total volume of 40 ul. Membranes were mixed with SPA beads.

[2] = molecular target: T1, human calcitonin receptor; assay: SPA competition on BHK cell membranes, 125I-calcitonin as radioligand (Assay VII)
Description: Membranes were prepared in the following way; the cells were rinsed with PBS and incubated with Versene for approximately 5 min before harvesting. The cells were flushed with PBS and the cell-suspension was centrifuged for 5 min at 1000 rpm. Cells were homogenized (Ultrathurrax) in a buffer containing 20 mM Na-HEPES and 10 mM EDTA (pH 7.4) and centrifuged at 20.000 rpm for 15 min. The resulting pellet was resuspended, homogenized and centrifuged (20.000 rpm, 15 min) in a buffer containing 20 mM Na-HEPES and 0.1 mM EDTA (pH 7.4, buffer 2). The resulting pellet was resuspended in buffer 2 and protein concentration was measured (BCA protein Assay, Pierce). The homogenate was kept cold during the whole procedure. The membranes were kept at −80° C. until use. Assay was performed in a 384 well Optiplate (PerkinElmer) in a total volume of 40 ul. Membranes were mixed with SPA beads. Final concentration of membranes 35 ng/μL final and Final concentration of SPA beads was 0.05 mg/well. Test-compounds were dissolved in DMSO and further diluted in assay buffer (50 mM Hepes, pH 7.4, 1 mM CaCl2, 5 mM MgCl₂, 0.1% OA and 0.02% Tween20). […] The final mixture was incubated for 120 min with shaking at 400 rpm at 25° C. prior to centrifugation (1500 rpm, 10 min). Samples were analyzed on TopCounter™ (Packard). The […] was calculated using (one site binding competition analysis) GraphPad Prism5 as a measure of receptor affinity.

Ratio hCT/hAmylin binding [1]	IC50 [2] [nM]	Binder
140	88.8	K([AEEA-γGlu-C20 diacid])CNTATCATQRLARFLRHSSPNFGAIPSSTNVGSNTY-NH2 (disulfide 2-7; N-terminus assumed; SMILES CC[C@H](C)[C@H](NC(=O)[C@H](C)NC(=O)CNC(=O)[C@H](Cc1ccccc1)NC(=O)[C@H](CC(N)=O)NC(=O)[C@@H]1CCCN1C(=O)[C@H](CO)NC(=O)[C@H](CO)NC(=O)[C@H](Cc1c[nH]cn1)NC(=O)[C@H](CCCNC(=N)N)NC(=O)[C@H](CC(C)C)NC(=O)[C@H](Cc1ccccc1)NC(=O)[C@H](CCCNC(=N)N)NC(=O)[C@H](C)NC(=O)[C@H](CC(C)C)NC(=O)[C@H](CCCNC(=N)N)NC(=O)[C@H](CCC(N)=O)NC(=O)[C@@H](NC(=O)[C@H](C)NC(=O)[C@@H]1CSSC[C@H](NC(=O)[C@@H](N)CCCCNC(=O)COCCOCCNC(=O)CC[C@H](NC(=O)CCCCCCCCCCCCCCCCCCC(=O)O)C(=O)O)C(=O)N[C@@H](CC(N)=O)C(=O)N[C@@H]([C@@H](C)O)C(=O)N[C@@H](C)C(=O)N[C@@H]([C@@H](C)O)C(=O)N1)[C@@H](C)O)C(=O)N1CCC[C@H]1C(=O)N[C@@H](CO)C(=O)N[C@@H](CO)C(=O)N[C@H](C(=O)N[C@@H](CC(N)=O)C(=O)N[C@H](C(=O)NCC(=O)N[C@@H](CO)C(=O)N[C@@H](CC(N)=O)C(=O)N[C@H](C(=O)N[C@@H](Cc1ccc(O)cc1)C(N)=O)[C@@H](C)O)C(C)C)[C@@H](C)O, also called compound 82)
60.7	36.5	K([AEEA-γGlu-C20 diacid])CNTATCATQRLANFLRHSSPNFGAIPSSTNVGRNTY-NH2 (disulfide 2-7; N-terminus assumed; SMILES CC[C@H](C)[C@H](NC(=O)[C@H](C)NC(=O)CNC(=O)[C@H](Cc1ccccc1)NC(=O)[C@H](CC(N)=O)NC(=O)[C@@H]1CCCN1C(=O)[C@H](CO)NC(=O)[C@H](CO)NC(=O)[C@H](Cc1c[nH]cn1)NC(=O)[C@H](CCCNC(=N)N)NC(=O)[C@H](CC(C)C)NC(=O)[C@H](Cc1ccccc1)NC(=O)[C@H](CC(N)=O)NC(=O)[C@H](C)NC(=O)[C@H](CC(C)C)NC(=O)[C@H](CCCNC(=N)N)NC(=O)[C@H](CCC(N)=O)NC(=O)[C@@H](NC(=O)[C@H](C)NC(=O)[C@@H]1CSSC[C@H](NC(=O)[C@@H](N)CCCCNC(=O)COCCOCCNC(=O)CC[C@H](NC(=O)CCCCCCCCCCCCCCCCCCC(=O)O)C(=O)O)C(=O)N[C@@H](CC(N)=O)C(=O)N[C@@H]([C@@H](C)O)C(=O)N[C@@H](C)C(=O)N[C@@H]([C@@H](C)O)C(=O)N1)[C@@H](C)O)C(=O)N1CCC[C@H]1C(=O)N[C@@H](CO)C(=O)N[C@@H](CO)C(=O)N[C@H](C(=O)N[C@@H](CC(N)=O)C(=O)N[C@H](C(=O)NCC(=O)N[C@@H](CCCNC(=N)N)C(=O)N[C@@H](CC(N)=O)C(=O)N[C@H](C(=O)N[C@@H](Cc1ccc(O)cc1)C(N)=O)[C@@H](C)O)C(C)C)[C@@H](C)O, also called compound 78)
32	1.53	K([AEEA-γGlu-C20 diacid])CNTATCATQRLAGFLRHSSPNFGAIPSSTPVGSNTY-NH2 (disulfide 2-7; N-terminus assumed; SMILES CC[C@H](C)[C@H](NC(=O)[C@H](C)NC(=O)CNC(=O)[C@H](Cc1ccccc1)NC(=O)[C@H](CC(N)=O)NC(=O)[C@@H]1CCCN1C(=O)[C@H](CO)NC(=O)[C@H](CO)NC(=O)[C@H](Cc1c[nH]cn1)NC(=O)[C@H](CCCNC(=N)N)NC(=O)[C@H](CC(C)C)NC(=O)[C@H](Cc1ccccc1)NC(=O)CNC(=O)[C@H](C)NC(=O)[C@H](CC(C)C)NC(=O)[C@H](CCCNC(=N)N)NC(=O)[C@H](CCC(N)=O)NC(=O)[C@@H](NC(=O)[C@H](C)NC(=O)[C@@H]1CSSC[C@H](NC(=O)[C@@H](N)CCCCNC(=O)COCCOCCNC(=O)CC[C@H](NC(=O)CCCCCCCCCCCCCCCCCCC(=O)O)C(=O)O)C(=O)N[C@@H](CC(N)=O)C(=O)N[C@@H]([C@@H](C)O)C(=O)N[C@@H](C)C(=O)N[C@@H]([C@@H](C)O)C(=O)N1)[C@@H](C)O)C(=O)N1CCC[C@H]1C(=O)N[C@@H](CO)C(=O)N[C@@H](CO)C(=O)N[C@H](C(=O)N1CCC[C@H]1C(=O)N[C@H](C(=O)NCC(=O)N[C@@H](CO)C(=O)N[C@@H](CC(N)=O)C(=O)N[C@H](C(=O)N[C@@H](Cc1ccc(O)cc1)C(N)=O)[C@@H](C)O)C(C)C)[C@@H](C)O, also called compound 71)
120	88.9	K([AEEA-γGlu-C20 diacid])CNTATCATQRLAHFLRHSSPNFGAIPSSTNVGRNTY-NH2 (disulfide 2-7; N-terminus assumed; SMILES CC[C@H](C)[C@H](NC(=O)[C@H](C)NC(=O)CNC(=O)[C@H](Cc1ccccc1)NC(=O)[C@H](CC(N)=O)NC(=O)[C@@H]1CCCN1C(=O)[C@H](CO)NC(=O)[C@H](CO)NC(=O)[C@H](Cc1c[nH]cn1)NC(=O)[C@H](CCCNC(=N)N)NC(=O)[C@H](CC(C)C)NC(=O)[C@H](Cc1ccccc1)NC(=O)[C@H](Cc1c[nH]cn1)NC(=O)[C@H](C)NC(=O)[C@H](CC(C)C)NC(=O)[C@H](CCCNC(=N)N)NC(=O)[C@H](CCC(N)=O)NC(=O)[C@@H](NC(=O)[C@H](C)NC(=O)[C@@H]1CSSC[C@H](NC(=O)[C@@H](N)CCCCNC(=O)COCCOCCNC(=O)CC[C@H](NC(=O)CCCCCCCCCCCCCCCCCCC(=O)O)C(=O)O)C(=O)N[C@@H](CC(N)=O)C(=O)N[C@@H]([C@@H](C)O)C(=O)N[C@@H](C)C(=O)N[C@@H]([C@@H](C)O)C(=O)N1)[C@@H](C)O)C(=O)N1CCC[C@H]1C(=O)N[C@@H](CO)C(=O)N[C@@H](CO)C(=O)N[C@H](C(=O)N[C@@H](CC(N)=O)C(=O)N[C@H](C(=O)NCC(=O)N[C@@H](CCCNC(=N)N)C(=O)N[C@@H](CC(N)=O)C(=O)N[C@H](C(=O)N[C@@H](Cc1ccc(O)cc1)C(N)=O)[C@@H](C)O)C(C)C)[C@@H](C)O, also called compound 84)
